Experimental data from patent US20180296696A1 (SANFORD BURNHAM PREBYS MEDICAL DISCOVERY INSTITUTE, published 2018).
Blank lines part the entries; values can stand above or below the molecule they belong to. No end group written: not given here.

Legend:
Tenascin-R (mouse) [1] = target: Tenascin-R (mouse) (UniProt Q8BYI9); assay: peptide-affinity chromatography of PBI mouse brain lysate, LC-MS/MS
Tenascin-R (mouse) [2] = target: Tenascin-R (mouse) (UniProt Q8BYI9); assay: peptide-affinity chromatography of PBI mouse brain lysate, elution with free CAQK, LC-MS/MS
[3] = target: Hyaluronan and proteoglycan link protein 4 (mouse) (UniProt Q80WM4); assay: as above
Sequence of Hyaluronan and proteoglycan link protein 4 (mouse) (Q80WM4 31-400 limits assumed): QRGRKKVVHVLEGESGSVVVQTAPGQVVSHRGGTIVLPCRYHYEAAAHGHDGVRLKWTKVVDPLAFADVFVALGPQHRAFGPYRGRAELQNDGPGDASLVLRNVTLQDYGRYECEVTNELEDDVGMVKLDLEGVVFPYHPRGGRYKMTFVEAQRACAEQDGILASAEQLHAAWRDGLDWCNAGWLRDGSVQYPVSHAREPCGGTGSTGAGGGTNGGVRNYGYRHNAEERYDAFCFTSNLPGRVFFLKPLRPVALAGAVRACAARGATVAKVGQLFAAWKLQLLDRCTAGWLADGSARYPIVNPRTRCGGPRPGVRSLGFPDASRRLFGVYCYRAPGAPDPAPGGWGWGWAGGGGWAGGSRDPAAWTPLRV

Versican core protein [4] = target: T1, Versican core protein (mouse, UniProt Q62059 24-3357, limits assumed); assay: as above
T1 construct: Native chondroitin sulfate proteoglycan from brain lysate, identified by LC-MS/MS against the Mus musculus UniProt database; also called VCAN
T1 sequence (Q62059 24-3357 limits assumed): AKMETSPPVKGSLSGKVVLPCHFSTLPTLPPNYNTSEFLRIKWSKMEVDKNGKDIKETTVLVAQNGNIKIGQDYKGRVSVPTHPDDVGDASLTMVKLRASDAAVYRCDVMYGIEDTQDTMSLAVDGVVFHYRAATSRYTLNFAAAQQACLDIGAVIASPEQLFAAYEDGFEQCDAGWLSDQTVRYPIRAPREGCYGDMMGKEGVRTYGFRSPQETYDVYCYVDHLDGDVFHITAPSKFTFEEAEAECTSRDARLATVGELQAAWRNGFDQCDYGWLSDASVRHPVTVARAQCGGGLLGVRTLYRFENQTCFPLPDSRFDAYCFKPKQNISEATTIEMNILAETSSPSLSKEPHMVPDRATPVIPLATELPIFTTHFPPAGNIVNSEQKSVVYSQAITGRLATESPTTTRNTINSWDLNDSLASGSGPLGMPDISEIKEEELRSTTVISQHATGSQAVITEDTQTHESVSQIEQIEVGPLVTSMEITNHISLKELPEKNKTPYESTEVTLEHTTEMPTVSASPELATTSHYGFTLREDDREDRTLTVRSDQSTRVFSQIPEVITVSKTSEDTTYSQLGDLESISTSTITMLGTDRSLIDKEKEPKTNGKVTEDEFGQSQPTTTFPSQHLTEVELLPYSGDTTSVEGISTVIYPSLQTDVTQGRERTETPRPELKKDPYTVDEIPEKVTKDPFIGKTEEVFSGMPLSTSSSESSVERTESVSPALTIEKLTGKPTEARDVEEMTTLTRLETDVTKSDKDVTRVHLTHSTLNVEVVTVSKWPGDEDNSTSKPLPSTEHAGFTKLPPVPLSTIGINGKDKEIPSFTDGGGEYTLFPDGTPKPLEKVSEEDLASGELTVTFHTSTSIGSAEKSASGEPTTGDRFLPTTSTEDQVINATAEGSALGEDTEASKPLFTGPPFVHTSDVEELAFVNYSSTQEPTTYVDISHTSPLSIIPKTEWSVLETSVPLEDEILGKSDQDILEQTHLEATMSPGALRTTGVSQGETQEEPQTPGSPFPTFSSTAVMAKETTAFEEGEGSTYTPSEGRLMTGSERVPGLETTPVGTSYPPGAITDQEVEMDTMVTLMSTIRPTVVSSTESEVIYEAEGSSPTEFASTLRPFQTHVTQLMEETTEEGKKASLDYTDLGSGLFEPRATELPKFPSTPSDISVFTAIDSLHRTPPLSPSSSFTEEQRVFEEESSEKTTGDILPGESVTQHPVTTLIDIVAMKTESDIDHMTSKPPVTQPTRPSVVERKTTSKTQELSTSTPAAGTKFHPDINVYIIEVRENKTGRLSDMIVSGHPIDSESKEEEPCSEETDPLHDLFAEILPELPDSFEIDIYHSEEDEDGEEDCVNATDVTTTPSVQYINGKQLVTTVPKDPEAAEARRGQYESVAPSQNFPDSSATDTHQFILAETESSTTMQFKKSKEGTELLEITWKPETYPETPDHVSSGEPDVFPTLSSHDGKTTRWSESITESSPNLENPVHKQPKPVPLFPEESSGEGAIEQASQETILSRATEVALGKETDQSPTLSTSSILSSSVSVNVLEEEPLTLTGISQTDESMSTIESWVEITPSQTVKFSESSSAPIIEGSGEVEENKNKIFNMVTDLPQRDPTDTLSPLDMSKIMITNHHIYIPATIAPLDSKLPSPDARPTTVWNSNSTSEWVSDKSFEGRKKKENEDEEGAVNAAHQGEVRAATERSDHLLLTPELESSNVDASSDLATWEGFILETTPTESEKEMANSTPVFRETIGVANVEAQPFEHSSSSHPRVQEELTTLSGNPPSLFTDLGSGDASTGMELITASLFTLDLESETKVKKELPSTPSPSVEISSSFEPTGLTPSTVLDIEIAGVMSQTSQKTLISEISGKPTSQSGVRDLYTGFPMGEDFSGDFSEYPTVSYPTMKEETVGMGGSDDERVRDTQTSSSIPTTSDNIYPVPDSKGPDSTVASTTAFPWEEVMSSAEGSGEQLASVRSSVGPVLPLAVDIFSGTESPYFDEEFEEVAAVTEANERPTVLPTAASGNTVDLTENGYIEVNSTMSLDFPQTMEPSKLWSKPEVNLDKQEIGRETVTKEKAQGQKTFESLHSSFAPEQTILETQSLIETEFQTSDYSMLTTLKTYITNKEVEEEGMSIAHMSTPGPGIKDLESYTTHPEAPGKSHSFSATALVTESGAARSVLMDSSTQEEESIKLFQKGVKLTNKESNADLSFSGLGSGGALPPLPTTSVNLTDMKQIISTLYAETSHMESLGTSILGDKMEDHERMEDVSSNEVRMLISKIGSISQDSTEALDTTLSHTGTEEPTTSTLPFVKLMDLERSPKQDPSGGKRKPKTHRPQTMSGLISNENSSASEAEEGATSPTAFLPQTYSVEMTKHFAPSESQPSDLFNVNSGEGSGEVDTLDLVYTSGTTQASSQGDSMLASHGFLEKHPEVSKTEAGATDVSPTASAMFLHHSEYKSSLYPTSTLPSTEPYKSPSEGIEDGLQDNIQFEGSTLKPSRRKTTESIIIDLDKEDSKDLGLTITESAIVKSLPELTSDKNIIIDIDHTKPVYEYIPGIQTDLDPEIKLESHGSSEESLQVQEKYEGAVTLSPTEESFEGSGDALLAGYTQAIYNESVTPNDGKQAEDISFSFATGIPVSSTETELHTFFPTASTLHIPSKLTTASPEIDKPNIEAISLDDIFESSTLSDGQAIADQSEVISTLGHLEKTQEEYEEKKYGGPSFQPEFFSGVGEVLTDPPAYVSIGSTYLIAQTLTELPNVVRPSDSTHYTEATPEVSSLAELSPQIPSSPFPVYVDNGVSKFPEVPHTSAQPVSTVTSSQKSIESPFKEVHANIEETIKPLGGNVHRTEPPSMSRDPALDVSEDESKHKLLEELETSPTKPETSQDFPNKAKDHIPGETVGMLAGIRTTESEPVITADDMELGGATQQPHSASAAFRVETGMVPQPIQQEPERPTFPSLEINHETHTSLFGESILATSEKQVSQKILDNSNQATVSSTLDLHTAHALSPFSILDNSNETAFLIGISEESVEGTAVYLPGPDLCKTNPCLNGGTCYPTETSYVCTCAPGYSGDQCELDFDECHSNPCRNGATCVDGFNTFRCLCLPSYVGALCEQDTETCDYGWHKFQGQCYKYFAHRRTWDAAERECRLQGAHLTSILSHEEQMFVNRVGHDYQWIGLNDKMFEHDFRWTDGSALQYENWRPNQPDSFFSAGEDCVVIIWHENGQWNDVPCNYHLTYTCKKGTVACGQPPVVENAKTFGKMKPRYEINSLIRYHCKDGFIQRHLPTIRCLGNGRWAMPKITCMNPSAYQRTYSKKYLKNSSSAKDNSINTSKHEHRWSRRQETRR

[5] = target: T2, Hyaluronan and proteoglycan link protein 4 (mouse, UniProt Q80WM4 31-400); assay: peptide-affinity chromatography of PBI mouse brain lysate, LC-MS/MS (empty column denotes protein was not detected)
T2 construct: Native protein from brain lysate, identified by LC-MS/MS; also called Hapln4; HAPLN4
T2 sequence (Q80WM4 31-400 limits assumed): as the sequence (Q80WM4 31-400 limits assumed) above
Description: (§1) Affinity Chromatography and Proteomics. For identifying CAQK binding proteins, mouse brains with brain injury were collected 6 hrs after injury. Using liquid nitrogen, the brains were crushed and ground into powder using a mortar and pestle. Next, brain tissue was lysed in PBS containing 200 mM n-octyl-beta-D-glucopyranoside and protease inhibitor cocktail (Roche) as described (Teesalu et al., PNAS 16157-16162 (2009)). The cleared lysate was loaded on to CAQK or control peptide (CGGK) coated Sulfolink-agarose beads (Pierce, Waltham, Mass.) and incubated at 4° C. for 3-4 hrs. The column was washed with wash buffer (75 mM octyl-beta-D-glucopyranoside and protease inhibitor cocktail in PBS) followed by washing with 0.5 mM control peptide in wash buffer to remove nonspecifically bound proteins. The bound proteins were eluted with 2 mM free CAQK peptide. The eluted factions were pooled, their protein concentration determined by using bicinchoninic acid (BCA) protein assay (Thermo Fischer) and the samples were digested using the Filter-aided Sample Preparation (FASP) method (Wisniewski et al., Nat Methods 6:359-362 (2009)). […] All mass spectra were analyzed with MaxQuant software version 1.5.0.25. […] Empty column denotes protein was not detected.

Versican core protein [6] = target: T1, Versican core protein; assay: as above
Description: as §1

Sequence of Tenascin-R (mouse) (Q8BYI9 32-1358 limits assumed): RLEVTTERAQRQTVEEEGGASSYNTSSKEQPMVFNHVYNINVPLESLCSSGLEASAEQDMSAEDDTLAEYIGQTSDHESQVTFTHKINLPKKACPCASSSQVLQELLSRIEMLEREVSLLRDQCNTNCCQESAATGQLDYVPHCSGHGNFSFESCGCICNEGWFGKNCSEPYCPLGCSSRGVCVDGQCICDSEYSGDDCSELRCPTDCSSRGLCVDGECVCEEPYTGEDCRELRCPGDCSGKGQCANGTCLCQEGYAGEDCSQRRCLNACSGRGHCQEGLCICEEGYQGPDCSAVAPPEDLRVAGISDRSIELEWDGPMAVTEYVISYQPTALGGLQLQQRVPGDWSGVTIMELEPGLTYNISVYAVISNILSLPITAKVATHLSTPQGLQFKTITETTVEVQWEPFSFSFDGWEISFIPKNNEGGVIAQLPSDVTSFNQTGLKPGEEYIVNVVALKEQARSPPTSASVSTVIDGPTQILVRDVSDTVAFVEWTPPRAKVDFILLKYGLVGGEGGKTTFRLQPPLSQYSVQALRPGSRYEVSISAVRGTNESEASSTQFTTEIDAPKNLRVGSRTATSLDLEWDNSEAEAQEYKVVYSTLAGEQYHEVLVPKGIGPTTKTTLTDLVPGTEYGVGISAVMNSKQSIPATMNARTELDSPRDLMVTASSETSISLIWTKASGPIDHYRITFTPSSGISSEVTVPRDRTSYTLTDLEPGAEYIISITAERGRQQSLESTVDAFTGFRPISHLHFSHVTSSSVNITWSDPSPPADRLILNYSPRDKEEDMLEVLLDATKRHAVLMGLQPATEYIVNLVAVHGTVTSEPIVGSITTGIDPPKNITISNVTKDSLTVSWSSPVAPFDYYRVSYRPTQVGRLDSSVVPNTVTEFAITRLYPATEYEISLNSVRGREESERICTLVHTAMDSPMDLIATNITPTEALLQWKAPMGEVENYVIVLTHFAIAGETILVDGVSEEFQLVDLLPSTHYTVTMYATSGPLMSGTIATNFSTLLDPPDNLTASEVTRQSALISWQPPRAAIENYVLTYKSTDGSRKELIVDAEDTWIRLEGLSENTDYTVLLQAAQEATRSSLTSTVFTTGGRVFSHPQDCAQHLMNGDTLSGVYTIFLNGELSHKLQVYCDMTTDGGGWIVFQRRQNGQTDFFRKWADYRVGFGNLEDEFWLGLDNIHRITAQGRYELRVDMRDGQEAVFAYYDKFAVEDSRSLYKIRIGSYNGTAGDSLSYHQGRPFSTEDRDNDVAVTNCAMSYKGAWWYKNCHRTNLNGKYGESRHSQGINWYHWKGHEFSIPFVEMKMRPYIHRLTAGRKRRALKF

- Log2 LFQ intensity (log2 LFQ intensity) (Tenascin-R (mouse) [1]): 24.1
Molecule: control peptide (CGGK)

- Log2 LFQ intensity (log2 LFQ intensity) (Tenascin-R (mouse) [2]): 26.7
- Log2 LFQ intensity (log2 LFQ intensity) [3]: 19.8
- Log2 LFQ intensity (log2 LFQ intensity) (Versican core protein [4]): 26
Molecule: CAQK peptide

- binding result [5]: no binding
- binding result (Versican core protein [6]): no binding
Molecule: CGGK (not fully specified (N-terminus, C-terminus), also called CGGK column) [control peptide (CGGK)]
